In publication PMC6628311, “An Emerin LEM-Domain Mutation Impairs Cell Response to Mechanical Stress” (Cells, 2019):

Experiments:
[1] = biological target: human barrier-to-autointegration factor (BAF) with all cysteines mutated into alanine (human) (UniProt O75531); assay: crystal structure; ternary complex EmN T43I/BAF/lamin A/C Ig-fold at 5 mg/mL, a week at 4 °C (proteolysis to the LEM-domain); hanging drop at 4 °C, 18% PEG 3350, 100 mM Tris Bis pH 5.5, 0.1 M NH4SO4; molecular replacement; 2.3 Å
[2] = biological target: the molecule itself; assay: thioflavin T fluorescence (self-assembly kinetics); protein at 300 uM heated at 37 °C in 20 mM Tris HCl pH 8, 30 mM NaCl, 5 mM DTT; aliquots at 20 uM protein with 2.5 uM ThT read at 20 °C over 24 h

In the case of “human barrier-to-autointegration factor (BAF) with all cysteines mutated into alanine (from UniProt O75531 1-89) (natural protein)”, the stoichiometry N [1] is reported as 2.

B1: human emerin fragment EmN (region 1-187), mutant ΔK37 (domain or fragment, UniProt P50402 1-187, looked up)
chain: MDNYADLSDTELTTLLRRYNIPHGPVVGSTRRLYEKIFEYETQRRRLSPPSSSAASSYSFSDLNSTRGDADMYDLPKKEDALLYQSKGYNDDYYEESYFTTRTYGEPESAGPSRAVRQSVTSFPDADAFHHQVHDDDLLSSSEEECKDRERPMYGRDSAYQSITHYRPVSASRSSLDLSYYPTSSS
notes: emerin, human, fragment EmN, residues 1-187, with the patient deletion ΔK37 (atrial cardiac defects); Made by site-directed mutagenesis from the EmN expression vector; also called EmN ΔK37; emerin ΔK37; not shown: His8, N-terminal, cleaved
B1: binds [2].

B2: human emerin fragment EmN (region 1-187), wild-type (domain or fragment, UniProt P50402 1-187, looked up)
chain: MDNYADLSDTELTTLLRRYNIPHGPVVGSTRRLYEKKIFEYETQRRRLSPPSSSAASSYSFSDLNSTRGDADMYDLPKKEDALLYQSKGYNDDYYEESYFTTRTYGEPESAGPSRAVRQSVTSFPDADAFHHQVHDDDLLSSSEEECKDRERPMYGRDSAYQSITHYRPVSASRSSLDLSYYPTSSS
notes: emerin, human, fragment EmN, residues 1-187 of the 254-residue protein (LEM-domain aa 1-45 and part of the disordered region); pETM-13 vector; also called wild-type EmN; EmN wild-type; not shown: His8, N-terminal, cleaved
B2: binds [2].

B3: human emerin fragment EmN (region 1-187), mutant P22L (domain or fragment, UniProt P50402 1-187, looked up)
chain: MDNYADLSDTELTTLLRRYNILHGPVVGSTRRLYEKKIFEYETQRRRLSPPSSSAASSYSFSDLNSTRGDADMYDLPKKEDALLYQSKGYNDDYYEESYFTTRTYGEPESAGPSRAVRQSVTSFPDADAFHHQVHDDDLLSSSEEECKDRERPMYGRDSAYQSITHYRPVSASRSSLDLSYYPTSSS
notes: emerin, human, fragment EmN, residues 1-187, with the patient mutation P22L (atrial cardiac defects); Made by site-directed mutagenesis from the EmN expression vector; also called EmN P22L; not shown: His8, N-terminal, cleaved
B3: binds [2].

B4: human emerin fragment EmN (region 1-187), mutant T43I (domain or fragment, UniProt P50402 1-187, looked up)
chain: MDNYADLSDTELTTLLRRYNIPHGPVVGSTRRLYEKKIFEYEIQRRRLSPPSSSAASSYSFSDLNSTRGDADMYDLPKKEDALLYQSKGYNDDYYEESYFTTRTYGEPESAGPSRAVRQSVTSFPDADAFHHQVHDDDLLSSSEEECKDRERPMYGRDSAYQSITHYRPVSASRSSLDLSYYPTSSS
notes: emerin, human, fragment EmN, residues 1-187, with the patient mutation T43I (atrial cardiac defects); Made by site-directed mutagenesis from the EmN expression vector; also called EmN T43I; not shown: His8, N-terminal, cleaved
B4: binds [2].
